From paper PMC8034659

Legend:
[1] = biological target: T1, TrfA wt (G254D/S267L, 33 kDa) (plasmid RK2, UniProt P07676 98-382, G254D;S267L); assay: crosslinking-MS
T1 sequence: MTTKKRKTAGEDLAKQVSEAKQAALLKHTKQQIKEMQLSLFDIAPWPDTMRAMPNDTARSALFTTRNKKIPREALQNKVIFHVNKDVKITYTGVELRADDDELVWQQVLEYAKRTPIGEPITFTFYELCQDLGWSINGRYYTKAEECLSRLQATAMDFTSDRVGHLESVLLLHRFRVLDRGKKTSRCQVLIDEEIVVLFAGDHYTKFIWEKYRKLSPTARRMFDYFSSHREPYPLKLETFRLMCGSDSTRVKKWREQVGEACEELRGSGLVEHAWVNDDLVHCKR

[2] = biological target: T1, TrfA wt (G254D/S267L, 33 kDa); assay: UV crosslinking

B1: 40T (dsDNA)
DNA 1: AGTGATGACAGATGAGGGGCGC
DNA 2: GCGCCCCTCATCTGTCATCACT
modifications: C2dT at T18 of bottom strand
binding result [1]: binds

B2: 37T (dsDNA)
DNA 1: AGTGATGACAGATGAGGGGCGC
DNA 2: GCGCCCCTCATCTGTCATCACT
modifications: C2dT at T15 of bottom strand
binding result [1]: binds

B3: 53T (dsDNA)
DNA 1: CCTGCGGTATTGACACTTGAGGGGCGCGACTACTGACAGATGAGGGGCGCGATCCTTGACACTTGAGGGGCAGAGTGATGACAGATGAGGGGCGCACCTATTGACATTTGAGGGGCTGTCCACAGGCAG
DNA 2: CTGCCTGTGGACAGCCCCTCAAATGTCAATAGGTGCGCCCCTCATCTGTCATCACTCTGCCCCTCAAGTGTCAAGGATCGCGCCCCTCATCTGTCAGTAGTCGCGCCCCTCAAGTGTCAATACCGCAGG
modifications: 5-Br-dU at T53 of top strand
binding result [2]: binds

B4: 71B (dsDNA)
DNA 1: CCTGCGGTATTGACACTTGAGGGGCGCGACTACTGACAGATGAGGGGCGCGATCCTTGACACTTGAGGGGCAGAGTGATGACAGATGAGGGGCGCACCTATTGACATTTGAGGGGCTGTCCACAGGCAG
DNA 2: CTGCCTGTGGACAGCCCCTCAAATGTCAATAGGTGCGCCCCTCATCTGTCATCACTCTGCCCCTCAAGTGTCAAGGATCGCGCCCCTCATCTGTCAGTAGTCGCGCCCCTCAAGTGTCAATACCGCAGG
modifications: 5-Br-dU in bottom strand: CAAGTG[BrdU]CAAGG
binding result [2]: binds

B5: 57T (dsDNA)
DNA 1: CCTGCGGTATTGACACTTGAGGGGCGCGACTACTGACAGATGAGGGGCGCGATCCTTGACACTTGAGGGGCAGAGTGATGACAGATGAGGGGCGCACCTATTGACATTTGAGGGGCTGTCCACAGGCAG
DNA 2: CTGCCTGTGGACAGCCCCTCAAATGTCAATAGGTGCGCCCCTCATCTGTCATCACTCTGCCCCTCAAGTGTCAAGGATCGCGCCCCTCATCTGTCAGTAGTCGCGCCCCTCAAGTGTCAATACCGCAGG
modifications: 5-Br-dU at T57 of top strand
binding result [2]: binds

B6: 56T (dsDNA)
DNA 1: CCTGCGGTATTGACACTTGAGGGGCGCGACTACTGACAGATGAGGGGCGCGATCCTTGACACTTGAGGGGCAGAGTGATGACAGATGAGGGGCGCACCTATTGACATTTGAGGGGCTGTCCACAGGCAG
DNA 2: CTGCCTGTGGACAGCCCCTCAAATGTCAATAGGTGCGCCCCTCATCTGTCATCACTCTGCCCCTCAAGTGTCAAGGATCGCGCCCCTCATCTGTCAGTAGTCGCGCCCCTCAAGTGTCAATACCGCAGG
modifications: 5-Br-dU at T56 of top strand
binding result [2]: binds

B7: 69B (dsDNA)
DNA 1: CCTGCGGTATTGACACTTGAGGGGCGCGACTACTGACAGATGAGGGGCGCGATCCTTGACACTTGAGGGGCAGAGTGATGACAGATGAGGGGCGCACCTATTGACATTTGAGGGGCTGTCCACAGGCAG
DNA 2: CTGCCTGTGGACAGCCCCTCAAATGTCAATAGGTGCGCCCCTCATCTGTCATCACTCTGCCCCTCAAGTGTCAAGGATCGCGCCCCTCATCTGTCAGTAGTCGCGCCCCTCAAGTGTCAATACCGCAGG
modifications: 5-Br-dU in bottom strand: CTCAAG[BrdU]GTCAAGG
binding result [2]: binds

B8: 58B (dsDNA)
DNA 1: CCTGCGGTATTGACACTTGAGGGGCGCGACTACTGACAGATGAGGGGCGCGATCCTTGACACTTGAGGGGCAGAGTGATGACAGATGAGGGGCGCACCTATTGACATTTGAGGGGCTGTCCACAGGCAG
DNA 2: CTGCCTGTGGACAGCCCCTCAAATGTCAATAGGTGCGCCCCTCATCTGTCATCACTCTGCCCCTCAAGTGTCAAGGATCGCGCCCCTCATCTGTCAGTAGTCGCGCCCCTCAAGTGTCAATACCGCAGG
modifications: 5-Br-dU in bottom strand: CACTC[BrdU]GCCCC
binding result [2]: binds

B9: 3T (dsDNA)
DNA 1: AGTGATGACAGATGAGGGGCGC
DNA 2: GCGCCCCTCATCTGTCATCACT
modifications: C2dT at T3 of top strand
binding result [1]: binds
